In paper PMC2880918:

Tests used:
[1] = molecular target: Nucleosome Assembly Protein 1 (Nap1) (UniProt P25293); experiment: FRET or BRET
[2] = molecular target: H2A–H2B dimer (Xenopus laevis) (UniProt P06897); experiment: FRET or BRET

Substance	Kd [1] [nM]	Kd [2] [nM]
(H3K56ac-H4)2 tetramer (from UniProt P62799 1-103) (complex)	11	–
tetrasome with the fluorescent label on H4 (from UniProt P62799 1-103) (complex)	–	35
